Legend:
[1] = molecular target: Recombinant C3d (human C3 residues 974-1265, C1010A, with N-terminal G-S-R-S-T) (human) (UniProt P01024); test: ITC at 25 C, Efb-C titrated into recombinant C3d, single-site model
[2] = molecular target: Recombinant C3d (human C3 residues 974-1265, C1010A, with N-terminal G-S-R-S-T) (human) (UniProt P01024); test: isothermal titration calorimetry, Efb-C titrated into recombinant C3d
[3] = molecular target: Recombinant C3d (human C3 residues 974-1265, C1010A, with N-terminal G-S-R-S-T) (human) (UniProt P01024); test: ITC at 25 C, Efb-C titrated into recombinant C3d
[4] = molecular target: Recombinant C3d (human C3 residues 974-1265, C1010A, with N-terminal G-S-R-S-T) (human) (UniProt P01024); test: ITC (Example 3, FIG. 17), Efb-C titrated into recombinant C3d
[5] = molecular target: Recombinant C3d (human C3 residues 974-1265, C1010A, with N-terminal G-S-R-S-T) (human) (UniProt P01024); test: ITC (Example 3, FIG. 17), Efb titrated into recombinant C3d
[6] = molecular target: Recombinant C3d (human C3 residues 974-1265, C1010A, with N-terminal G-S-R-S-T) (human) (UniProt P01024); test: ITC at 25 C, Efb titrated into recombinant C3d, single-site model
[7] = molecular target: Recombinant C3d (human C3 residues 974-1265, C1010A, with N-terminal G-S-R-S-T) (human) (UniProt P01024); test: isothermal titration calorimetry, Efb titrated into recombinant C3d
[8] = molecular target: Recombinant C3d (human C3 residues 974-1265, C1010A, with N-terminal G-S-R-S-T) (human) (UniProt P01024); test: ITC at 25 C, Efb titrated into recombinant C3d
[9] = molecular target: Recombinant C3d (human C3 residues 974-1265, C1010A, with N-terminal G-S-R-S-T) (human) (UniProt P01024); test: ITC, Ehp titrated into recombinant C3d, model of two non-equivalent sites, second site
[10] = molecular target: Recombinant C3d (human C3 residues 974-1265, C1010A, with N-terminal G-S-R-S-T) (human) (UniProt P01024); test: isothermal titration calorimetry, Ehp titrated into recombinant C3d; second site
[11] = molecular target: Recombinant C3d (human C3 residues 974-1265, C1010A, with N-terminal G-S-R-S-T) (human) (UniProt P01024); test: ITC, model of two non-equivalent sites
[12] = molecular target: Recombinant C3d (human C3 residues 974-1265, C1010A, with N-terminal G-S-R-S-T) (human) (UniProt P01024); test: isothermal titration calorimetry, Ehp titrated into recombinant C3d; first site of a model with two non-equivalent sites
[13] = molecular target: Recombinant C3d (human C3 residues 974-1265, C1010A, with N-terminal G-S-R-S-T) (human) (UniProt P01024); test: isothermal titration calorimetry, Ehp titrated into recombinant C3d; second site of a model with two non-equivalent sites
[14] = molecular target: Recombinant C3d (human C3 residues 974-1265, C1010A, with N-terminal G-S-R-S-T) (human) (UniProt P01024); test: ITC, Ehp titrated into recombinant C3d, model of two non-equivalent sites, first site
[15] = molecular target: Recombinant C3d (human C3 residues 974-1265, C1010A, with N-terminal G-S-R-S-T) (human) (UniProt P01024); test: isothermal titration calorimetry, Ehp titrated into recombinant C3d; first site

Recombinant C3d (human C3 residues 974-1265, C1010A, with N-terminal G-S-R-S-T) (human), sequence (P01024 other isoform, or with tags, fused parts or gaps C1010A C1010A limits assumed, form in doubt): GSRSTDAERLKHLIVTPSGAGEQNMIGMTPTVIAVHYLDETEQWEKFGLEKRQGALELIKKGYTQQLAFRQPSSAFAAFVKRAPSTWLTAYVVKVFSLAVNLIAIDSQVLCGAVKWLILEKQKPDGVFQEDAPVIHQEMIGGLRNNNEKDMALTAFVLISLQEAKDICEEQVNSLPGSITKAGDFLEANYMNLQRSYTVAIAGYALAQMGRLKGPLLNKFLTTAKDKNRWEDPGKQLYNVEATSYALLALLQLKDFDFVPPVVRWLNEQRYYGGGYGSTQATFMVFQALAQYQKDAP

In the case of “Efb-C, C-terminal C3-binding domain of Efb from S. aureus strain Mu50 (from UniProt P0C6P2 94-165)”, the Kd [1] is reported as 2 nM, the N [2] is reported as 1 and the enthalpy of binding (ΔH) [3] is reported as -8.5 kcal/mol. For the same substance, the Kd [4] was 2 nM.
Substance “Extracellular fibrinogen-binding protein (Efb), recombinant full-length, S. aureus strain Mu50 (from UniProt P0C6P2 29-165)” has a Kd [5] of 2 nM, a Kd [6] of 2 nM and a Kd [7] of 4 nM. The N [7] was 1, the ΔH [7] was -9.1 kcal/mol and the enthalpy of binding (ΔH) [8] was -9 kcal/mol.
“SAV1155/Ehp (Efb Homologous Protein), recombinant mature form, S. aureus strain Mu50” gave a Kd [9] of 33 nM, an N [10] of 0.5 and a ΔH [10] of 5.7 kcal/mol. It also gave a change in ΔG between the first and second sites [11] of 3 kcal/mol, an unfavorable change in enthalpy release between the first and second sites [11] of 27 kcal/mol and a Kd [12] of 0.2 nM. The Kd [13] was 33 nM, the Kd [14] was 0.2 nM and the N [15] was 0.5. The ΔH [15] was -21.1 kcal/mol.
